According to publication PMC10864275, “Binding kinetics drive G protein subtype selectivity at the β1-adrenergic receptor” (Nature Communications, 2024):
Values joined by “and” are separate entries in the source; they are usually repeats but may differ in a detail not shown here. Equal values may be shown once.

Columns and labels:
Conditions in all cases: both partners purified
[1] = biological target: T1, avi-β1AR-E (turkey β1-adrenergic receptor, minimally thermostabilised construct with E130 restored, … (turkey, UniProt P07700 1-367, Δ3-32 | Δ244-271 | C358A^8.59 | C116L^3.27 | R68S^1.59 | F327A^7.37 | …, biotin on the avi-tag)); test: BLI; biotinylated avi-tagged receptor in LMNG immobilised on streptavidin biosensors; 500 μM isoprenaline; mini-G in solution at a single concentration (0.125-4 μM); 20 mM TrisHCl pH 8.0, 150 mM NaCl, 15 mM MgCl2, 0.02% LMNG, 0.1% BSA; 25 °C; 1:1 monophasic local partial fit; one of n = 3 tips
T1 construct: turkey β1-adrenergic receptor; N-terminus truncated (Δ3-32), C-terminus truncated (Δ368-483), IL3 truncated (Δ244-271); as β1AR-W (β1AR-MetΔ5) but with E130W reverted to E130; source: Sf9 (baculovirus), purified in LMNG (NiNTA, SEC), biotinylated with GST-BirA and repurified by SEC; not shown: avi-tag, N-terminal, kept
T1 sequence (P07700 other isoform, or with tags, fused parts or gaps with the stated changes): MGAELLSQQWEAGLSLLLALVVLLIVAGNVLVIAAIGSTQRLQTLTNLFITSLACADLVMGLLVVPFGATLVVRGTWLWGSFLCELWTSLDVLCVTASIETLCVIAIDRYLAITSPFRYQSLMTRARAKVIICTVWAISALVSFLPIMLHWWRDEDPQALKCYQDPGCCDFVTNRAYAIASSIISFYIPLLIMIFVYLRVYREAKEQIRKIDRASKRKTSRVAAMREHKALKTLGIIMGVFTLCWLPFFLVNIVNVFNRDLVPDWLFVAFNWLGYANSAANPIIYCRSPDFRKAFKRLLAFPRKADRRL

[2] = biological target: T2, avi-β1AR-W (turkey β1-adrenergic receptor β1AR-MetΔ5, thermostabilised with E130W, N-terminal biotinylated … (turkey, UniProt P07700 1-367, Δ3-32 | Δ244-271 | C358A^8.59 | C116L^3.27 | R68S^1.59 | E130W^3.41 | …, biotin on the avi-tag)); test: as above
T2 construct: turkey β1-adrenergic receptor; N-terminus truncated (Δ3-32), C-terminus truncated (Δ368-483), IL3 truncated (Δ244-271); source: Sf9 (baculovirus), purified in LMNG (NiNTA, SEC), biotinylated with GST-BirA and repurified by SEC; not shown: avi-tag, N-terminal, kept
T2 sequence (P07700 other isoform, or with tags, fused parts or gaps with the stated changes): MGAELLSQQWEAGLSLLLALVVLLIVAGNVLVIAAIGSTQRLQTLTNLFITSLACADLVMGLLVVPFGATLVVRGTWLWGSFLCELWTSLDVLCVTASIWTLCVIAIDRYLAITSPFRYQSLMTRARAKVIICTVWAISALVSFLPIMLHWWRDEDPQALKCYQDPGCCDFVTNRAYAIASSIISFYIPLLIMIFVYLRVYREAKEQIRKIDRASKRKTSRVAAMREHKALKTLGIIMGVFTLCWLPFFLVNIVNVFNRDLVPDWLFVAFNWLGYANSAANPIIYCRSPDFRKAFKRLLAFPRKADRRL

[3] = biological target: T3, avi-β1AR-E (turkey β1-adrenergic receptor, β1AR-E construct with N-terminal biotinylated avi-tag) (turkey, UniProt P07700 1-367, Δ3-32 | Δ244-271 | C358A^8.59 | C116L^3.27 | R68S^1.59 | F327A^7.37 | …, biotin on the avi-tag); test: BLI; biotinylated avi-β1AR in LMNG on streptavidin biosensors, mini-G in solution; 500 μM isoprenaline; 20 mM TrisHCl pH 8.0, 150 mM NaCl, 15 mM MgCl2, 0.02% LMNG, 0.1% BSA; 25 °C; single point measurements, monophasic 1:1 local fit, n = 3
T3 construct: turkey β1-adrenergic receptor; N-terminus truncated (Δ3-32), C-terminus truncated (Δ368-483), IL3 truncated (Δ244-271); as β1AR-W (β1AR-MetΔ5) but with E130 as in the wild type; source: Sf9 (baculovirus), purified in LMNG (NiNTA, SEC), biotinylated with GST-BirA, repurified by SEC; not shown: avi-tag, N-terminal, kept

Row | Binder | Kd [1] | koff [1] | kon [1] | Kd [2] | koff [2] | kon [2] | Kd [3] | fold reduction of kon against mini-Gs [3]
1 | mini-Gs/q R70 (chimera of mini-Gs with the receptor-interacting residues of the α5 helix replaced by Gq residues) (domain or fragment) GIEKQLQKDKQVYRATHRLLLLGADNSGKSTIVKQMRILHGGSGGSGGTSGIFETKFQVDKVNFHMFDVGGQRDERRKWIQCFNDVTAIIFVVDSSDYNRLQEALNDFKSIWNNRWLRTISVILFLNKQDLLAEKVLAGKSKIEDYFPEFARYTTPEDATPEPGEDPRVTRAKYFIRDEFLRISTASGDGRHYCYPHFTCAVDTENARRIFNDCKDIILQMNLREYNLV | 241 nM and 242 nM and 244 nM | 0.00344 s⁻¹ (2×) and 0.0034 s⁻¹ | 14300 M⁻¹ s⁻¹ and 14200 M⁻¹ s⁻¹ and 14000 M⁻¹ s⁻¹ | 529 nM and 541 nM and 533 nM | 0.00658 s⁻¹ and 0.00672 s⁻¹ and 0.00679 s⁻¹ | 12400 M⁻¹ s⁻¹ (2×) and 12800 M⁻¹ s⁻¹ |  | 
2 | mini-Gs/i R43 with C96A (domain or fragment) IEKQLQKDKQVYRATHRLLLLGADNSGKSTIVKQMRIYHTSGIFETKFQVDKVNFHMFDVGGQRDERRKWIQAFNDVTAIIFVVDSSDYNRLQEALNDFKSIWNNRWLRTISVILFLNKQDLLAEKVLAGKSKIEDYFPEFARYTTPEDATPEPGEDPRVTRAKYFIRDEFLRISTASGDGRHYCYPHFTCAVDTENARRIFNDVTDIIIKMNLRDCGLF |  |  |  |  |  |  | 1090 nM | 40 fold
3 | mini-Gs/q R70 (domain or fragment) IEKQLQKDKQVYRATHRLLLLGADNSGKSTIVKQMRIYHTSGIFETKFQVDKVNFHMFDVGGQRDERRKWIQCFNDVTAIIFVVDSSDYNRLQEALNDFKSIWNNRWLRTISVILFLNKQDLLAEKVLAGKSKIEDYFPEFARYTTPEDATPEPGEDPRVTRAKYFIRDEFLRISTASGDGRHYCYPHFTCAVDTENARRIFNDCKDIILQMNLREYNLV |  |  |  |  |  |  | 240 nM | 
4 | mini-Gs/i R43 C96A (chimera of mini-Gs with the receptor-interacting residues of the α5 helix replaced by Gi1 residues) (domain or fragment) IEKQLQKDKQVYRATHRLLLLGADNSGKSTIVKQMRILHTSGIFETKFQVDKVNFHMFDVGGQRDERRKWIQAFNDVTAIIFVVDSSDYNRLQEALNDFKSIWNNRWLRTISVILFLNKQDLLAEKVLAGKSKIEDYFPEFARYTTPEDATPEPGEDPRVTRAKYFIRDEFLRISTASGDGRHYCYPHFTCAVDTENARRIFNDVTDIIIKMNLRDCGLF | 1070 nM and 1180 nM and 1030 nM | 0.00392 s⁻¹ and 0.00399 s⁻¹ (2×) | 3670 M⁻¹ s⁻¹ and 3370 M⁻¹ s⁻¹ and 3860 M⁻¹ s⁻¹ | 3050 nM and 2400 nM and 2150 nM | 0.0063 s⁻¹ and 0.00605 s⁻¹ and 0.00634 s⁻¹ | 2070 M⁻¹ s⁻¹ and 2520 M⁻¹ s⁻¹ and 2950 M⁻¹ s⁻¹ |  | 
